Measurements reported in the supplement of paper PMC9732359.
± gives the uncertainty stated by the source.

Experiment: protein stability index of a GFP-peptide fusion (yeast GPS) (PSI 1-4); higher = more stable; sorted into four equal gates, so the index is relative within each strain
Procedure, shortened: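 Tiled 17-residue peptides from yeast proteins were fused downstream of GFP on a plasmid that also expresses Cherry, and the pooled library was carried in yeast. Mid-log cultures grown in leucine-free medium were sorted into four equal gates by GFP/Cherry fluorescence ratio. Plasmids from each gate were PCR-amplified and Illumina-sequenced, and reads were assigned to strains by barcodes. Each peptide's protein stability index is the sum, over gates, of the gate's read frequency multiplied by its gate number.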

Sequence | protein stability index (doa10∆) | protein stability index (pdr5∆) | protein stability index (san1∆) | protein stability index (ubr1∆)
LLLDNGFNMKKITTSTE [SRP68] | 2.19 ± 0.18 | 2.22 ± 0.091 | 3.05 ± 0.17 | 2.88 ± 0.1
KLTILQEGIEAIATTVI [RET1] | 2.79 ± 0.069 | 2.32 ± 0.06 | 2.51 ± 0.082 | 2.78 ± 0.037
DASTPLRSTENGIVDQV [RPB2] | 2.94 ± 0.12 | 3.33 ± 0.1 | 3.34 ± 0.06 | 3.47 ± 0.092
LKEVLYNDSATSGEAAA [RPN2] | 1.45 ± 0.057 | 1.52 ± 0.063 | 1.86 ± 0.11 | 1.28 ± 0.056
EVPEGVTVSIKSRIVKV [RPL9A] | 1.51 ± 0.064 | 1.86 ± 0.061 | 1.57 ± 0.097 | 2.26 ± 0.091
PVLDNPFTNEAHMWPRV [POP3] | 3.26 ± 0.12 | 2.94 ± 0.1 | 2.99 ± 0.11 | 3.27 ± 0.06
LHQYYGDDESKIPAVEY [FAS1] | – | 2.75 ± 0.21 | 2.96 ± 0.19 | –
ILQIREEIPSKSWDDSV [RRP6] | 2.27 ± 0.078 | 2.76 ± 0.092 | 2.32 ± 0.084 | 2.7 ± 0.055
NNEMKSLQRSKSSFVKE [SMC1] | – | 3.25 ± 0.13 | 3.03 ± 0.11 | 3.28 ± 0.073
IPLGKNVVVKWQGKPVF [RIP1] | 3.36 ± 0.26 | – | 3.42 ± 0.07 | 2.96 ± 0.26
GEHEKSNILLNSLTKYP [MED1] | 1.45 ± 0.08 | 1.92 ± 0.076 | 1.14 ± 0.25 | 1.69 ± 0.068
PNPTPSMINSVSPTNVM [PGD1] | 2.21 ± 0.032 | 2.55 ± 0.037 | 2.32 ± 0.03 | 2.27 ± 0.028
GTPEATKGMITNLQRNV [NUT2] | 2.95 ± 0.15 | 2.85 ± 0.12 | 2.94 ± 0.15 | 3.09 ± 0.19
ALMKTLIKFVDLSRNGR [NUT1] | 2.37 ± 0.11 | 2.29 ± 0.09 | 2.26 ± 0.11 | 2.65 ± 0.15
AIKKSSMKMELLKKELL [SMC2] | 2.89 ± 0.17 | 2.19 ± 0.095 | 2.78 ± 0.2 | 2.13 ± 0.081
NATHDEDEFIVQHDQIL [SWP82] | 2.93 ± 0.036 | 3.13 ± 0.032 | 2.96 ± 0.032 | 3.044 ± 0.023
LLDAYSHIESDSTSHNN [MED1] | 2.73 ± 0.051 | 2.93 ± 0.048 | 2.6 ± 0.057 | 2.89 ± 0.038
APDGSASISLPNHIPSV [SWP82] | 3.36 ± 0.11 | 2.54 ± 0.068 | 2.77 ± 0.097 | 3.3 ± 0.044
FLQSQRQQQQRSILQSL [SWI1] | 1.8 ± 0.062 | 1.92 ± 0.073 | 1.41 ± 0.087 | 1.55 ± 0.054
MEYLSGGEKTVAALALL [SMC1] | 2.2 ± 0.15 | 2.41 ± 0.11 | 1.68 ± 0.19 | 2.3 ± 0.13
SFLGEAKSMAFLKEVLS [YML103C/NUP188] | – | – | 2.48 ± 0.18 | 2.54 ± 0.21
DRKDQDDRDHFGKKRLD [RPB2] | 3.27 ± 0.14 | 3.04 ± 0.12 | 3.28 ± 0.13 | 3.39 ± 0.086
TKKSKLESTKAETDYVD [DSN1] | 2.58 ± 0.073 | 2.9 ± 0.069 | 2.73 ± 0.087 | 3.03 ± 0.059
AIQMVDPASFYLFDEID [SMC3] | 1.95 ± 0.042 | 2.32 ± 0.049 | 2.66 ± 0.067 | 2.07 ± 0.045
LWSGKQILSVAIPNGIH [RPO21] | 1.57 ± 0.066 | 1.59 ± 0.051 | 1.37 ± 0.088 | 1.71 ± 0.087
TPSTETAASVFKELCYE [PRE3] | 1.92 ± 0.048 | 2.1 ± 0.052 | 2.29 ± 0.062 | 1.84 ± 0.038
KSSGSSMATPTHSDSHE [ROX3] | 3.08 ± 0.16 | 2.97 ± 0.1 | 2.82 ± 0.064 | 2.52 ± 0.091
